The target of experiment [1] is T1, anthrax edema factor (EF) (Bacillus anthracis, UniProt P40136 34-800).
T1 sequence: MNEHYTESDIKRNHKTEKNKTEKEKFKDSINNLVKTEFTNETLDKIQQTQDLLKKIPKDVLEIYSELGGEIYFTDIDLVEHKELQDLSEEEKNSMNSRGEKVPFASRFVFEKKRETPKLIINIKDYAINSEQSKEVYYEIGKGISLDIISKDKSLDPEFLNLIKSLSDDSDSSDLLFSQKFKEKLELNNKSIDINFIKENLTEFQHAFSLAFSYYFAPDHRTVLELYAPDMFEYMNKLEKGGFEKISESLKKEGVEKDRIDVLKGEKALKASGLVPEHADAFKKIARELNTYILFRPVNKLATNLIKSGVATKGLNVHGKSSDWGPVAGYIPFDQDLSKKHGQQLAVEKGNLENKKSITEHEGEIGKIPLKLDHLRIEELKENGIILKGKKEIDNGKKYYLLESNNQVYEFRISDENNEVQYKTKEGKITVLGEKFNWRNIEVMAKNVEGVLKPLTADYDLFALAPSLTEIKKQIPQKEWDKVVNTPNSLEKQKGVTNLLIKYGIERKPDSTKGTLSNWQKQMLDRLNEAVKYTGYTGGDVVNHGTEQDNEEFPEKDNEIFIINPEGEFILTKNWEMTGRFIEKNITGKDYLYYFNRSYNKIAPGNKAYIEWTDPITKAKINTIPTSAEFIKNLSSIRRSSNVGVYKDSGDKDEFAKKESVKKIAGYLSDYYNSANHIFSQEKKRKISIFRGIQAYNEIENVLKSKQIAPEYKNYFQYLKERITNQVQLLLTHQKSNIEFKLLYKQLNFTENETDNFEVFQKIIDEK

A further experiment has as its target T2, bovine serum albumin (bovine, UniProt P02769 25-607).
T2 construct: also called BSA
The experiment is described as follows: ELISA, protein coated at 10 ug/ml. (In general: In an ELISA, binding on a coated surface is turned into a signal by an enzyme label.)

The target of the next experiment is lysozyme (Gallus gallus (Chicken), UniProt P00698 19-147). The experiment in a line: ELISA, protein coated at 10 ug/ml.
Chain of lysozyme (P00698 19-147 limits assumed): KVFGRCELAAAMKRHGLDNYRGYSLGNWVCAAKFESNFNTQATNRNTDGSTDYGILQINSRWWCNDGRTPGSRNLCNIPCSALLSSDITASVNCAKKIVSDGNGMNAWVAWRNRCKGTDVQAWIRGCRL
Experiment [2] addresses T3, anthrax lethal factor (LF) (Bacillus anthracis, UniProt P15917 34-809).
T3 sequence: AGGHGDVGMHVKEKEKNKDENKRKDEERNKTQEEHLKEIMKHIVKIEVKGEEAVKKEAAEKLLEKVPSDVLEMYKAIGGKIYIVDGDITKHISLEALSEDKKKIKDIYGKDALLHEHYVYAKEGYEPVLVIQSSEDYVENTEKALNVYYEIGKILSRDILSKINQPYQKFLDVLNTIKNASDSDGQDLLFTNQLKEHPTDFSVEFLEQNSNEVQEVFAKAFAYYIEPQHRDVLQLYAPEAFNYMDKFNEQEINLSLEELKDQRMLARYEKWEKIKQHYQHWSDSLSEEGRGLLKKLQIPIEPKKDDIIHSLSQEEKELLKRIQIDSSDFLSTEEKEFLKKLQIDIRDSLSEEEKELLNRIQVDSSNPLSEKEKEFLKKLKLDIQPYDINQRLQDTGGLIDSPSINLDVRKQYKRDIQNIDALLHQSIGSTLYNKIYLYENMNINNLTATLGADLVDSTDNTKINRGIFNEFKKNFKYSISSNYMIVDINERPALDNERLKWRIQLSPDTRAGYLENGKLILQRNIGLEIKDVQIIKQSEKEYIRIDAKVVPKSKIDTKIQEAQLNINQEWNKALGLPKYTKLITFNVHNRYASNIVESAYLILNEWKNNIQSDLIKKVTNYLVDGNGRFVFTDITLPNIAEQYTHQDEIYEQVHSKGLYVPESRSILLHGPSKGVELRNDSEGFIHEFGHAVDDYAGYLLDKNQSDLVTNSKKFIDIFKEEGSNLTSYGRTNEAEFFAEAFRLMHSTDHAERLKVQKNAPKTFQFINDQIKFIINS
The experiment in a line: ELISA, LF coated at 5 ug/ml.

Experiment [3] has as its target T1, anthrax edema factor (EF). The experiment is described as follows: ELISA, EF coated at 5 ug/ml.
Experiment [4] addresses T1, anthrax edema factor (EF). The experiment is described as follows: SPR (BIAcore), IgG immobilized on CM5 chip, recombinant EF injected, 1:1 model.
Experiment [5] deals with T1, anthrax edema factor (EF). The experiment in a line: cell-based or functional assay.
Experiment [6] has as its target anthrax protective antigen (PA), purified (Bacillus anthracis, UniProt P13423 30-764). The experiment is described as follows: Western blot of purified toxin proteins; PA as negative control.
Experiment [7] concerns the target T1, anthrax edema factor (EF). The experiment is described as follows: Western blot of purified toxin proteins (SDS-PAGE) probed with the mAb. Background: In western blotting, separated proteins are transferred to a membrane and probed.
For experiment [8], the target named is T3, anthrax lethal factor (LF). The experiment in a line: cell-based or functional assay.
Experiment [9] deals with T3, anthrax lethal factor (LF). The experiment is described as follows: SPR (BIAcore 3000), LF immobilized on CM3 chip, Fab injected.
Experiment [10] concerns the target T1, anthrax edema factor (EF). The experiment in a line: Western blot of purified toxin proteins (SDS-PAGE) probed with the mAb. This is another data set of the same source.

T2 sequence (P02769 25-607 limits assumed): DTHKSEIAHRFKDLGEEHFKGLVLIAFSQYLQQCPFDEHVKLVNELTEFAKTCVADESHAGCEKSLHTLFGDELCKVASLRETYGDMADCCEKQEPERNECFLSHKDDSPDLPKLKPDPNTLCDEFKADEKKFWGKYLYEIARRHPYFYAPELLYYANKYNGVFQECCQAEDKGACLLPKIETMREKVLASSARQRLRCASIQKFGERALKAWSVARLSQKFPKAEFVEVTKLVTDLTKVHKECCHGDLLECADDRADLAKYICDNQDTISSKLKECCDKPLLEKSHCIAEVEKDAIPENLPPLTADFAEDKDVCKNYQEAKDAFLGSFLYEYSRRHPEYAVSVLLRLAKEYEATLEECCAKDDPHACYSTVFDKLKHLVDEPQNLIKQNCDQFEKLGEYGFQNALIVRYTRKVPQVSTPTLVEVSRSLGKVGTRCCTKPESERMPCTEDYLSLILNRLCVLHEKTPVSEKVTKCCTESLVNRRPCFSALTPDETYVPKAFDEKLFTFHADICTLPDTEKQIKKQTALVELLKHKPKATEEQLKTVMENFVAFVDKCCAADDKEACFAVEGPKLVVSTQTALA
Chain of anthrax protective antigen (PA), purified (P13423 30-764 limits assumed): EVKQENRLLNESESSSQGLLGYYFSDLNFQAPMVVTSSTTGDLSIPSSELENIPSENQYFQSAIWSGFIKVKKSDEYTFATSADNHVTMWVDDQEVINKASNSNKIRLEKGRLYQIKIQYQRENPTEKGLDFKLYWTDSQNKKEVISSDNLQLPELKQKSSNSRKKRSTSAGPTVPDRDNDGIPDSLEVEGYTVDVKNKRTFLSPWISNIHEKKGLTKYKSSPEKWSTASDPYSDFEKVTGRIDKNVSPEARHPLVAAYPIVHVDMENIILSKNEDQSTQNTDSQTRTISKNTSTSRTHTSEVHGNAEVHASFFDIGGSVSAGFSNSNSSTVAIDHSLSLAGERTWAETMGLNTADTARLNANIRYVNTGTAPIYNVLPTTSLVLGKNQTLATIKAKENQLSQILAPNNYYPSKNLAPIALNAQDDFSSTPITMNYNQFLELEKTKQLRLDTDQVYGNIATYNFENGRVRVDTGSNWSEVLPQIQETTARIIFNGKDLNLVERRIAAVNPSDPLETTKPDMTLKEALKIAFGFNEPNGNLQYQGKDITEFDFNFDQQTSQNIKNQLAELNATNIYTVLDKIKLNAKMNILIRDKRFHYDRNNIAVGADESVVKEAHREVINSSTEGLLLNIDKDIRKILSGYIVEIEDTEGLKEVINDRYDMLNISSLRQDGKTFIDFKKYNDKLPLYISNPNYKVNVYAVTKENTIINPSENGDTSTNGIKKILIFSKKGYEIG

B1: anti-EF clone EF14H (antibody, V domains shown)
VH: VQLLEESGGGLVKPGGSLRLSCAASGFTFSNYSMNWVRQAPGKGLEWVGFIRTKAKGGTTEYAASVKGRFTISRDDSKSIAYLQMNSLKTEDTAVYYCTPAGIIIRLVTPIYYYYMDVWGKGTTVTVS
VL: AAELTQSPSSLSASVGDRVTITCRASQGIRNYLAWYQQKPGKVPKLLIYAASTLQSGVPSRFSGSGSGTDFTLTISSLQPEDVATYYCQKYSSAPFTFGPGTKVGIKR
As for B1, in [1], the EC50 (read off the curve) – broadly, the concentration that produces a half-maximal response – was around 0.05 µg/mL. Besides, the binding result with bovine serum albumin and with lysozyme was “no binding” in each case.

B2: anti-LF clone LF9D (antibody, V domains shown)
VH: EVQLLESGGGLVKPGGSLRLSCAASGFTFSSYAMHWVRQTPEKGLEWVSTISSIGGSTWYSDSVKGRFTISRDNSKNTLFLHMKSLRAEDTAVYYCARDFFSQVGWSTPNNWFDPWGQGTLVTVS
VL: AAELTQSPSTLSASVGDRVTITCRASQGIATYLNWYQQIPGKAPKLLIYAASTLESGVPSRFSGSGSGAEFTLTISSLQPGDFATYYCQQFYSMPLTFGGGTKVEIKR
On to B2, for which the binding result in [2] was “binds”; with bovine serum albumin, “no binding”; with lysozyme it was “no binding”.

B3: anti-EF clone EF15A (antibody, V domains shown)
VH: VQLLEESGGGVVQPGRSLRLSCTASGFTFSNYGMQWVRQAPGKRLEWVAFISYSGSNKQYADSVRGRFTISRDNSKNILYLQMNSLRSEDTAVYYCARDSHYLDYLPDAFDYWGQGTVVTVS
VL: ELVMTQSPSLLSASVGDRVTITCRASQGISNYLAWFQQKPGKAPKRLIFTAYRLESGVPSRFSGSMSGTEFTLTISSLEPEDFATYYCLQHSAYPPTFGQGTKLEIKR
Take B3: the binding result was “no binding” with bovine serum albumin, “no binding” with lysozyme and “binds” in experiment [3].

B4: anti-anthrax EF13D monoclonal antibody (IgG) (antibody, V domains shown)
VH: EVQLLESGAEVKKPGSSVKVSCKVSGGTFSSFGISWVRQAPGQGLEWMGLIIPILGTANYAQKFQGRLTITADESTSTVYMELSSLRSEDTAVYYCATDPYHNWGEWDLDYWGQGTLVTVS
VL: AAELTQSPSSLSASVGDRVSITCRASQSISNYLSWYQQKPGKAPQLLIYDASTLQSGVPSRFSGSGSGTDFTLTISSLQPEDFATYYCQCGYGTYPTFGGGTQVEIKR
In the case of B4, in the experiment with bovine serum albumin, the binding result is listed as “no binding”. The binding result in the experiment with lysozyme is reported as “no binding”. Besides, in [4], the equilibrium dissociation constant (Kd) (in general, the concentration at which binding is half-saturated) was 9.7 nM; the koff (usually the first-order rate constant of dissociation) was 0.0004 s⁻¹; the kon (in general, the second-order rate constant of association) was found to be 41200 M⁻¹ s⁻¹. For the same molecule, in experiment [5], the “EC50 of inhibition of ET-mediated cAMP production in RAW264.7 cells” value is 0.028 µg/mL.

B5: anti-anthrax LF10E monoclonal antibody (IgG) (antibody, V domains shown)
VH: EVQLLESGGGLVKPGGSLRLTCAASGFTFSSYAMHWVRQAPEKGLEWVSSISGSGGGTWYADSVKGRFTISRDNSRNTLYLQLNSLRAEDTAVYYCARPKYTGYENPFDYWGQGTLVTVS
VL: ELQMTQSPSSLSASVGDRVTITCRASQDIRNYLAWYQQEPGKAPRLLIYYASKLQSGVPSRFSGRGSGTDYSLTISSLQPEDFATYYCQQYDSVPLTFGGGTKMEIKR
B5: the binding result (with bovine serum albumin; in the experiment with lysozyme; in experiment [6]; in experiment [7]) was “no binding” in each case. In addition, the “EC50 of neutralization of LT toxicity, RAW264.7 macrophage viability (MTT)” value in experiment [8] turned out to be 0.0156 µg/mL.

B6: anti-anthrax LF10E Fab (Fab, V domains shown)
VH: EVQLLESGGGLVKPGGSLRLTCAASGFTFSSYAMHWVRQAPEKGLEWVSSISGSGGGTWYADSVKGRFTISRDNSRNTLYLQLNSLRAEDTAVYYCARPKYTGYENPFDYWGQGTLVTVS
VL: ELQMTQSPSSLSASVGDRVTITCRASQDIRNYLAWYQQEPGKAPRLLIYYASKLQSGVPSRFSGRGSGTDYSLTISSLQPEDFATYYCQQYDSVPLTFGGGTKMEIKR
As for B6, in experiment [9], the Kd amounted to 0.69 nM, the dissociation rate constant (koff) turned out to be 0.00019 s⁻¹ and the kon was 270000 M⁻¹ s⁻¹.

B7: anti-anthrax LF11H monoclonal antibody (IgG) (antibody, V domains shown)
VH: VQLLEQSGAEVKKPGESLKISCKGSGYSFTNYWIGWVRQMPGKGLEWMGIIYPDDSDTRYSPSFQGQVTISFDKSINTAYLQWSSLKASDTAIYYCARALWFRDWGKMDVWGKGTTVTVS
VL: ELQMTQSPSSLSASVGDRVTITCRASQGIRNDLGWYQQKPGKAPKLLIYAASSLQSGVPSRFSGSGSGTDFTLTISSLQPEDFATYYCLQDYTYPWTFGQGTKLEIKR
As to B7, the binding result (in the experiment with bovine serum albumin; in the experiment with lysozyme; in experiment [6]; in experiment [10]) was “no binding” each time. For the same molecule, the “EC50 of neutralization of LT toxicity, RAW264.7 macrophage viability (MTT)” value in experiment [8] came to 62.6 µg/mL.

B8: anti-anthrax LF11H Fab (Fab, V domains shown)
VH: VQLLEQSGAEVKKPGESLKISCKGSGYSFTNYWIGWVRQMPGKGLEWMGIIYPDDSDTRYSPSFQGQVTISFDKSINTAYLQWSSLKASDTAIYYCARALWFRDWGKMDVWGKGTTVTVS
VL: ELQMTQSPSSLSASVGDRVTITCRASQGIRNDLGWYQQKPGKAPKLLIYAASSLQSGVPSRFSGSGSGTDFTLTISSLQPEDFATYYCLQDYTYPWTFGQGTKLEIKR
With B8, in [9], the Kd turned out to be 7.4 nM, the koff worked out at 0.001 s⁻¹ and the on-rate constant (kon) came out at 130000 M⁻¹ s⁻¹.

The values above are taken from US20100119520A1 (US Dept. of Health and Human Services, published 2010).
